What all share (experiment): cell-based or functional assay
The target in assay [1] is Tau seeds: sonicated human insoluble Tau from patients with frontotemporal dementia (FTD-PHF) (human) (UniProt P10636).
Assay [2] concerns the target Tau seeds: sonicated human insoluble Tau from patients with Alzheimer's disease (AD-PHF, fraction 8) (human) (UniProt P10636).
Assay [3] addresses Tau seeds: sonicated human insoluble Tau from patients with progressive supranuclear palsy (PSP-PHF, fraction 8) (human) (UniProt P10636).
Assay [4] addresses Tau seeds: brain fraction from transgenic mice expressing human Tau P301L (human) (UniProt P10636).
The target in assay [5] is Tau seeds: brain fraction from transgenic mice expressing human Tau P301S (human) (UniProt P10636).
Chain of Tau seeds: brain fraction from transgenic mice expressing human Tau P301S (human) (P10636 other isoform, or with tags, fused parts or gaps P301S P301S): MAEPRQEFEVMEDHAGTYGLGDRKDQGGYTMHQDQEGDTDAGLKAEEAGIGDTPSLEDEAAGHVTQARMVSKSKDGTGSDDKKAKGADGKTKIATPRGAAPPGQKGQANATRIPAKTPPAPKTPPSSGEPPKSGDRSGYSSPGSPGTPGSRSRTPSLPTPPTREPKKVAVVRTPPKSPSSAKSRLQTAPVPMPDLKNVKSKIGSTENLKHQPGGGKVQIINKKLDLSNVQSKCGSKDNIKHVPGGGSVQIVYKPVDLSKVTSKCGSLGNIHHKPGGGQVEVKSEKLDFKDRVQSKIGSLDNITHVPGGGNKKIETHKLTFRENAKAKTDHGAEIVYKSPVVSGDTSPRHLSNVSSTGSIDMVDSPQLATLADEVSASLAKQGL

Chain of Tau seeds: brain fraction from transgenic mice expressing human Tau P301L (human) (P10636 other isoform, or with tags, fused parts or gaps P301L P301L limits assumed): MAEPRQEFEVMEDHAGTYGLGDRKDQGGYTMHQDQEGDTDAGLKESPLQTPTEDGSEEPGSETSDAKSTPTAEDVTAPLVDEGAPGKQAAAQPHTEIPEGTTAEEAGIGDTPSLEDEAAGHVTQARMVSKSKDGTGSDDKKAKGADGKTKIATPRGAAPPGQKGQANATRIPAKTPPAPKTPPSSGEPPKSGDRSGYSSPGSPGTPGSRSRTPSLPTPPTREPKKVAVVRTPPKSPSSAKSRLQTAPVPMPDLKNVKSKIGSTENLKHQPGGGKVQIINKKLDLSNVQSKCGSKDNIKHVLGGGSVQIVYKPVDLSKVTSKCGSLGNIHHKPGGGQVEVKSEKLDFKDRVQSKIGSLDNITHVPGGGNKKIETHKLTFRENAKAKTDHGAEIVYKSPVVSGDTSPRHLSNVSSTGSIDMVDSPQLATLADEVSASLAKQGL
Chain of IPN002 of WO2014/028777A2 (antibody) (VH): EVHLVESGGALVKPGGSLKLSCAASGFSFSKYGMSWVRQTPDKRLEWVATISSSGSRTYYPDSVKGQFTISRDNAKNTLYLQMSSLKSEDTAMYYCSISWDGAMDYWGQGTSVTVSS
Chain of IPN002 of WO2014/028777A2 (antibody) (VL): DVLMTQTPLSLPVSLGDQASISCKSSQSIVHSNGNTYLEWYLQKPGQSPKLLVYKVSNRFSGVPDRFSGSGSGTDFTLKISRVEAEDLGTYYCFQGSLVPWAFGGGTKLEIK
Chain of Tau seeds: sonicated human insoluble Tau from patients with progressive supranuclear palsy (PSP-PHF, fraction 8) (human) (P10636 other isoform, or with tags, fused parts or gaps limits assumed): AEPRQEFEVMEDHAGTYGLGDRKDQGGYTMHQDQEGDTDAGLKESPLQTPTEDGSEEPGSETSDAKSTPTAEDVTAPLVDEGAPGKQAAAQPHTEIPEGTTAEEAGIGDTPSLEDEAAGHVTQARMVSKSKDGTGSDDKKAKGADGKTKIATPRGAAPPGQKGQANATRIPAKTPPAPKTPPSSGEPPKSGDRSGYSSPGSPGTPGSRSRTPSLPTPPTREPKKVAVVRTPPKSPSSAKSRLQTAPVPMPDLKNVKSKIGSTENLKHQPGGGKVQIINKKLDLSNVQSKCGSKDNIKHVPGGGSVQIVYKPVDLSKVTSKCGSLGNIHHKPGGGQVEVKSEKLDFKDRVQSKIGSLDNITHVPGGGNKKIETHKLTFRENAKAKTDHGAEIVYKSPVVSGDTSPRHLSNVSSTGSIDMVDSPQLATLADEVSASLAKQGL
Chain of Tau seeds: sonicated human insoluble Tau from patients with Alzheimer's disease (AD-PHF, fraction 8) (human) (P10636 other isoform, or with tags, fused parts or gaps limits assumed): as above
Chain of Tau seeds: sonicated human insoluble Tau from patients with frontotemporal dementia (FTD-PHF) (human) (P10636 other isoform, or with tags, fused parts or gaps limits assumed): as above
Chain of HJ8.5 of WO 2014/008404 (antibody) (VH): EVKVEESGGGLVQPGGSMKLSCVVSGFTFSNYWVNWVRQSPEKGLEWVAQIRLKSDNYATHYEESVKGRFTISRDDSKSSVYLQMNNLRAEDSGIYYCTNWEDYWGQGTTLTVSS
Chain of HJ8.5 of WO 2014/008404 (antibody) (VL): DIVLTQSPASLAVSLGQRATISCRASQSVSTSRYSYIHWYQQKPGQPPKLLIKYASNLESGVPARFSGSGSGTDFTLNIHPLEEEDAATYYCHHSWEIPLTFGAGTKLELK

Take AT8 (MN1020) (antibody): the Imax (maximal efficacy at 300 nM), cellular Tau aggregation assay is 36% in assay [1], 19% in assay [2] and 25% in assay [3].

Consider IPN002 of WO2014/028777A2 (antibody), for which the results for the IC50, cellular Tau aggregation assay in assay [4] and in assay [3] were 122 nM and 207 nM, respectively. Further, the Imax (maximal efficacy at 300 nM), cellular Tau aggregation assay was determined as 73% in assay [4]; 50% in assay [1]; 22% in assay [5]; 19% in assay [2]; 64% in assay [3].

For PT3 of WO2013/096380A2 (antibody), the IC50, cellular Tau aggregation assay in assay [4] stood at 26 nM; in assay [1], 1 nM; in assay [5] it was 350 nM; in assay [2] it was 32 nM; in assay [3] it was 47 nM. The Imax (maximal efficacy at 300 nM), cellular Tau aggregation assay was found to be 69% in assay [4]; 80% in assay [1]; 56% in assay [5]; 69% in assay [2]; 55% in assay [3].

On to HJ8.5 of WO 2014/008404 (antibody), for which the Imax (maximal efficacy at 300 nM), cellular Tau aggregation assay in assay [1] is 67%; in assay [5], 43%; in assay [2] it was 46%; in assay [3], 79%. In assay [3], this substance returned an IC50, cellular Tau aggregation assay of 73 nM.

Source of the values: US20210139574A1.
